This is an account of results in patent US20240301385, “DNA MODIFYING ENZYMES AND ACTIVE FRAGMENTS AND VARIANTS THEREOF AND METHODS OF USE” (LIFEEDIT THERAPEUTICS, INC., published 2024).

Holding throughout (conditions): tags: SV40 NLS, 3xFLAG N-term; nucleoplasmin NLS C-term
For one series, the target named is T1, APG30129-L32-nAPG07433.1 (synthetic).
T1 chain: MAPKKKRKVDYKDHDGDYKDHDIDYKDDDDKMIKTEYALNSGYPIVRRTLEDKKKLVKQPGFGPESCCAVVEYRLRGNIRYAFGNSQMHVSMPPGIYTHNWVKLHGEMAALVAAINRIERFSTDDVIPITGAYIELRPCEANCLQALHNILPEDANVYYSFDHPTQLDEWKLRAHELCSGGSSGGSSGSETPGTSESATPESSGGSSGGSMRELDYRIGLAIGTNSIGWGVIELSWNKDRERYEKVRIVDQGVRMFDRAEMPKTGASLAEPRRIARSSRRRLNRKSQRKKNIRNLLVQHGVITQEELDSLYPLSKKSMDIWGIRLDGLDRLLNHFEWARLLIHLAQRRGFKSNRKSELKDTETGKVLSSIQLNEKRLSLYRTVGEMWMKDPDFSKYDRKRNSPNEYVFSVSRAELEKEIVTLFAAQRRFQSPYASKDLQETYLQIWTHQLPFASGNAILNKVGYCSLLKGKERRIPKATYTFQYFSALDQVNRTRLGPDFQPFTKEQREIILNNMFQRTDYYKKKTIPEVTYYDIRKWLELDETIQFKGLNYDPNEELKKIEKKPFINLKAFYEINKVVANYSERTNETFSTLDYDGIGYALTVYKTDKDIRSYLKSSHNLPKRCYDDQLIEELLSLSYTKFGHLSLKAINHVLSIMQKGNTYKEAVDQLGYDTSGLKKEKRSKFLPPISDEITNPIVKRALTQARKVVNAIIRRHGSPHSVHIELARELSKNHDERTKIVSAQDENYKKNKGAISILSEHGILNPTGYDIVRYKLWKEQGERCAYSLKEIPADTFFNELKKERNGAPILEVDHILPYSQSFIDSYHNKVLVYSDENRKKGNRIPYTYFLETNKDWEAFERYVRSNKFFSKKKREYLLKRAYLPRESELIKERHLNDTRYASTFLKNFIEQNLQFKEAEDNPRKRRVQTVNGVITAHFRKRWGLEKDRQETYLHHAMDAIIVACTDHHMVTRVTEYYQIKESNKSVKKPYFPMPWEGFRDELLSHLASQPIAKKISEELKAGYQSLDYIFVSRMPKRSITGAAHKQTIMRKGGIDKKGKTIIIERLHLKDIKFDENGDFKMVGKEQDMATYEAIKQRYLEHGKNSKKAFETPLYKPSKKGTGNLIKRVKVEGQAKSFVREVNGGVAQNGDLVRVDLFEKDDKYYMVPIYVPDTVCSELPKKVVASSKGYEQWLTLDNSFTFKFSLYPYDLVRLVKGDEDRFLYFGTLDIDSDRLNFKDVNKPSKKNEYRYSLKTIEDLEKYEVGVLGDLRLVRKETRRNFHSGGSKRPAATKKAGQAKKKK
Description: cell_activity; HEK293FT; PAM SEQ 152. As for the experimental part:
(§1) 500 ng of plasmid comprising an expression cassette comprising a coding sequence for each fusion protein shown in Table 3 and 500 ng of plasmid comprising an expression cassette encoding an sgRNA shown in Table 4 were co-transfected into HEK293FT cells at 75-90% confluency in 24-well plates using Lipofectamine 2000 reagent (Life Technologies). Cells were then incubated at […] for 72 h. Following incubation, genomic DNA was then extracted using NucleoSpin 96 Tissue (Macherey-Nagel) following the manufacturer's protocol. The genomic region flanking the targeted genomic site was PCR amplified using the primers in Table 4 and products were purified using ZR-96 DNA Clean and Concentrator (Zymo Research) following the manufacturer's protocol. The purified PCR products were then sent for Next Generation Sequencing on Illumina MiSeq (2×250). Results were analyzed for INDEL formation or introduction of % specific cytosine mutations.
(§2) The position of each nucleotide in the target sequence was determined. “C17” indicates, for example, a cytosine at position 17 of the target sequence. The position of each nucleotide in the target sequence was determined by numbering the first nucleotide in the target sequence closest to the PAM as position 1, and the position number increases in the 3′ direction away from the PAM sequence.

Another series deals with T2, APG30127-L32-nAPG07433.1 (synthetic).
T2 chain: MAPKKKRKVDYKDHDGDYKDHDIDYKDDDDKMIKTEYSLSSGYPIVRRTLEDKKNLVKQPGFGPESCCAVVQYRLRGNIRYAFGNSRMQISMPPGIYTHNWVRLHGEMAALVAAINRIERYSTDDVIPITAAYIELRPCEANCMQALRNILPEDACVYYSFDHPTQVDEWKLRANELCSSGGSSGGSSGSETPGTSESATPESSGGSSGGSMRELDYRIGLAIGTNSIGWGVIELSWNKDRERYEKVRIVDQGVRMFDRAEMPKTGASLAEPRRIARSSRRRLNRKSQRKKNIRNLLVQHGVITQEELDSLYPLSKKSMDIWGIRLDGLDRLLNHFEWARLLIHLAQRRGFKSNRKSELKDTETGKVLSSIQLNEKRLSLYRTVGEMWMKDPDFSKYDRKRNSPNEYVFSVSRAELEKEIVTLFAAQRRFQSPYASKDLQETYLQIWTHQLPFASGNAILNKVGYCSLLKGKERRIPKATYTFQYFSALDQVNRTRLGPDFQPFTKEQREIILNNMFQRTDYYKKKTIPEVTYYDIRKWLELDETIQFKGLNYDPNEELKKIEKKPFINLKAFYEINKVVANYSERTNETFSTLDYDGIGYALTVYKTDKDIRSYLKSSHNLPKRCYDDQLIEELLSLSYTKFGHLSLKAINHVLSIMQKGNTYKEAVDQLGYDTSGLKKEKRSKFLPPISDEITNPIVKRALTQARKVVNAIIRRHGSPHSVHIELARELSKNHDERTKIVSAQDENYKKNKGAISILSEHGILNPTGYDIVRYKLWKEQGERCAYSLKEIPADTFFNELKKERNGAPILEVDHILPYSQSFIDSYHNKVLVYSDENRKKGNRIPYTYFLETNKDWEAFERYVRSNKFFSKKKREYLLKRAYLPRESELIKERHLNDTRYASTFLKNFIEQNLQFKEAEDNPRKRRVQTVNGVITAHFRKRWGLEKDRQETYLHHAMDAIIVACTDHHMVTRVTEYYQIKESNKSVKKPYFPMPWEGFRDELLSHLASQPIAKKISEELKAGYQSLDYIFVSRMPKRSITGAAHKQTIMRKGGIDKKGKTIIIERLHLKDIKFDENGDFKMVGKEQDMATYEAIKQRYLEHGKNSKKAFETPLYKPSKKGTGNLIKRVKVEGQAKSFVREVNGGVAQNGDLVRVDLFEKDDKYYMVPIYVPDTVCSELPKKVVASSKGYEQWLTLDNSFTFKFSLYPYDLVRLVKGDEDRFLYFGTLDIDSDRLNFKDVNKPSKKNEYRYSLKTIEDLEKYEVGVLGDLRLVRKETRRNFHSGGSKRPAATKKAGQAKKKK
Description: cell_activity; HEK293FT; PAM SEQ 152. The method, then:
as §1, §2

A further series concerns the target nAPG07433.1-APG05840 (synthetic). Description: cell_activity; HEK293FT; C>G predominant; PAM SEQ 152.

B1: SGN000186 sgRNA ; SGN000186 target (ssRNA ; dsDNA)
RNA: GGACAGUGCGCAUCUCCCUGGUCAUAGUUCCAUUAAAGCCAAAAGUGGCUUUGAUGUUUCUAUGAUAAGGGUUUCGACCCGUGGCGUCGGGGAUCGCCUGCCCAUUGAAAUGGGCUUCUCCCCAUUUAUU
DNA 1: GGACAGTGCGCATCTCCCTG
DNA 2: CAGGGAGATGCGCACTGTCC
As to B1, the activity with APG30129-L32-nAPG07433.1 turned out to be 11.4 % mutated reads; in the series with APG30127-L32-nAPG07433.1 it was 14.3 % mutated reads.

B2: SGN000928 sgRNA ; SGN000928 target (ssRNA ; dsDNA)
RNA: GCUUCUACUCUUGGCUUACAACCCAGUCAUAGUUCCAUGAAAGCCAAAAGUGGCUUUGAUGUUUCUAUGAUAAGGGUUUCGGCCCGUGGCGUCGGGGAUCGCCUGCCCAUUCCGAUGGGCUUCUCCCCAUUUAUU
DNA 1: GCTTCTACTCTTGGCTTACAACCCA
DNA 2: TGGGTTGTAAGCCAAGAGTAGAAGC
Consider B2, for which the activity with nAPG07433.1-APG05840 is 20.9 % mutated reads.
